The values below come from US8067187.

Series [1] addresses T1, heat-denatured misfolded chicken ovalbumin, P01012.
T1 chain: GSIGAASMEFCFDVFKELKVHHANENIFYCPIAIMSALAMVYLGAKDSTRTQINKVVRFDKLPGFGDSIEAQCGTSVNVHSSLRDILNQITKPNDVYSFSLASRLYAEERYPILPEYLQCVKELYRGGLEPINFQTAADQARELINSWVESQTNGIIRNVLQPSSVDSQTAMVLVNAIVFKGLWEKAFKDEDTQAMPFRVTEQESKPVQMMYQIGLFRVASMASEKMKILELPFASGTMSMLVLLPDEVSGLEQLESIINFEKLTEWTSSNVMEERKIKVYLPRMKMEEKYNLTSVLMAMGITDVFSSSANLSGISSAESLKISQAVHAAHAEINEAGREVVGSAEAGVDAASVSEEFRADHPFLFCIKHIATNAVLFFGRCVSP

Series [2] addresses T2, recombinant human β2-glycoprotein I, P02749.
T2 chain: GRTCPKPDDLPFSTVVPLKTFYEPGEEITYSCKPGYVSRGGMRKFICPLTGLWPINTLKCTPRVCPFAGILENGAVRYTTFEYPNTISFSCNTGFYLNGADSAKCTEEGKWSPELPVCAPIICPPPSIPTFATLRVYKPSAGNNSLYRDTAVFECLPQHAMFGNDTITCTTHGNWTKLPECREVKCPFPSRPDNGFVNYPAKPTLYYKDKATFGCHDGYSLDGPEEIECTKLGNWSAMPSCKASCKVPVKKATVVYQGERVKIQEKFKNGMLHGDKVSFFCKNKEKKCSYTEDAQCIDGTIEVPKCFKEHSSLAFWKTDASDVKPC

In series [3] the target is T3, β2-glycoprotein I purified from fresh human plasma, P02749.
T3 chain: T2 chain

B1: tissue-type plasminogen activator (tPA, Actilyse, Boehringer-Ingelheim) (protein)
chain: SYQVICRDEKTQMIYQQHQSWLRPVLRSNRVEYCWCNSGRAQCHSVPVKSCSEPRCFNGGTCQQALYFSDFVCQCPEGFAGKCCEIDTRATCYEDQGISYRGTWSTAESGAECTNWNSSALAQKPYSGRRPDAIRLGLGNHNYCRNPDRDSKPWCYVFKAGKYSSEFCSTPACSEGNSDCYFGNGSAYRGTHSLTESGASCLPWNSMILIGKVYTAQNPSAQALGLGKHNYCRNPDGDAKPWCHVLKNRRLTWEYCDVPSCSTCGLRQYSQPQFRIKGGLFADIASHPWQAAIFAKHRRSPGERFLCGGILISSCWILSAAHCFQERFPPHHLTVILGRTYRVVPGEEEQKFEVEKYIVHKEFDDDTYDNDIALLQLKSDSSRCAQESSVVRTVCLPPADLQLPDWTECELSGYGKHEALSPFYSERLKEAHVRLYPSSRCTSQHLLNRTVTDNMLCAGDTRSGGPQANLHDACQGDSGGPLVCLNDGRMTLVGIISWGLGCGQKDVPGVYTKVTNYLDWIRDNMRP
B1: in series [1], the “tPA protease activity, chromogenic tPA substrate S-2765” value is reported as “At 80-fold dilution, misfolded OVA stimulated tPA protease activity when compared to PBS/DMSO buffer control”. Besides, the “Plg-activation assay: tPA-mediated conversion of Plg to plasmin, chromogenic substrate S-2251” value in series [2] is recorded as “Recombinant β2GPI, but not β2GPI purified from fresh plasma stimulate tPA-mediated conversion of Plg to plasmin”; in series [3], “Recombinant β2GPI, but not β2GPI purified from fresh plasma stimulate tPA-mediated conversion of Plg to plasmin”.
